Measured values taken from patent US20040147437A1, “Calycins” (priority 2000, published 2004).

Key:
[1] = Ligand binding affinity of proteins for selected ligands (FIG. 5): retinoic acid; details: mutant relative to native ERABP; see FIG. 5
[2] = Ligand binding affinity of proteins for selected ligands (FIG. 5): retinol; details: see FIG. 5
[3] = Ligand binding affinity of proteins for selected ligands (FIG. 5): retinal; details: see FIG. 5

affinity for retinoic acid [1]: reduced affinity
binding of retinol [2]: bind
binding of retinal [3]: bind
B1: ERABP (Arg 80 and Glu63 to isoleucine): Epididymal Retinoic acid Binding Protein with Arg 80 and Glu63 mutated to isoleucine (protein, UniProt P06911 1-188, looked up, variant E63I R80I)
chain: MENIMPFALLGLCVGLAAGTEGAVVKDFDISKFLGFWYEIAFASKMGTPGLAHKEEKMGAMVVELKENLLALTTTYYSEDHCVLIKVTATEGDGPAKFQVTILSGKKEVVVEATDYLTYAIIDITSLVAGAVHRTMKLYSRSLDDNGEALYNFRKITSDHGFSETDLYILKHDLTCVKVLQSAAESRP
